Assay [1] has as its target T1, NAGK-SmBiT (N-acetyl-L-glutamate kinase fused to Small BiT) (Synechocystis sp. PCC 6803, UniProt P73326 1-297).
T1 construct: N-acetyl-L-glutamate kinase (NAGK), Synechocystis sp; PCC 6803; Cloned into pTEV5 (NdeI, BamHI); source: E. coli Lemo21, purified (Ni-NTA HisTrap); not shown: SmBiT (after a 16 amino acids flexible linker), C-terminal, kept
T1 sequence (looked up): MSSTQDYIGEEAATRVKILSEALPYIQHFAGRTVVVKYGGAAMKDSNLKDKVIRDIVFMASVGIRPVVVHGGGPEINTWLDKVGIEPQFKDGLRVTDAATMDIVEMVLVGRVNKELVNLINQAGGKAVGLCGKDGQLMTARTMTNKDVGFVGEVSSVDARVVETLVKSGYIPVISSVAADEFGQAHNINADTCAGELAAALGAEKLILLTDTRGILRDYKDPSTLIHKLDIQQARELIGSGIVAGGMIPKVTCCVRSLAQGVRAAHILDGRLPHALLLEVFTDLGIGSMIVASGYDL
Put plainly: split reporter (BiFC, NanoBiT); in solution; NAGK-SmBiT titrated to 10 pM PII-LgBiT; 2 mM ATP, 2 mM Arg and 2 mM NAG; 40 min at 30 °C. To be noted: both partners purified.

In assay [2] the target is T1, NAGK-SmBiT (N-acetyl-L-glutamate kinase …). Description: split reporter (BiFC, NanoBiT); in solution; NAGK-SmBiT titrated to 10 pM PII-LgBiT; 2 mM ADP and 2 mM NAG; 40 min at 30 °C. The settings on record: both partners purified.
The target is the same in assay [3]. Description: split reporter (BiFC, NanoBiT); in solution; NAGK-SmBiT titrated to 10 pM PII-LgBiT variant; no effector molecules; 40 min at 30 °C; apparent KD. The settings on record: both partners purified.
For assay [4] the target is unchanged. Description: split reporter (BiFC, NanoBiT); in solution; NAGK-SmBiT titrated to 10 pM PII-LgBiT variant; 2 mM ATP and 2 mM NAG; 40 min at 30 °C. The settings on record: both partners purified.
For assay [5] the target is unchanged. Description: split reporter (BiFC, NanoBiT); in solution; NAGK-SmBiT (3-666 nM) titrated to 10 pM PII-LgBiT variant; 2 mM ATP and 2 mM arginine; 40 min at 30 °C. The settings on record: both partners purified.
For assay [6] the target is unchanged. Description: split reporter (BiFC, NanoBiT); in solution; NAGK-SmBiT titrated to 10 pM PII-LgBiT variant; 2 mM ATP; 40 min at 30 °C; apparent KD. The settings on record: both partners purified.
For assay [7] the target is unchanged. Description: split reporter (BiFC, NanoBiT); in solution; NAGK-SmBiT titrated to 10 pM PII-LgBiT; 2 mM ADP and 50 mM NAG; 40 min at 30 °C. To be noted: both partners purified.
Assay [8] shares this target. Put plainly: split reporter (BiFC, NanoBiT); in solution; NAGK-SmBiT titrated to 10 pM PII-LgBiT variant; 2 mM ATP and 50 mM NAG; 40 min at 30 °C. To be noted: both partners purified.
The target is the same in assay [9]. Description: split reporter (BiFC, NanoBiT); in solution; NAGK-SmBiT titrated to 10 pM PII-LgBiT; 2 mM ATP, 2 mM Arg and 50 mM NAG; 40 min at 30 °C. To be noted: both partners purified.
Assay [10] has the same target. Put plainly: split reporter (BiFC, NanoBiT); in solution; NAGK-SmBiT titrated to 10 pM PII-LgBiT variant; 2 mM ADP; 40 min at 30 °C; apparent KD. To be noted: both partners purified.
The target of assay [11] is T2, NAGK (as used in the Biolayer interferometry of ref. 17) (UniProt P73326 1-297).
T2 construct: N-acetyl-L-glutamate kinase
T2 sequence (looked up): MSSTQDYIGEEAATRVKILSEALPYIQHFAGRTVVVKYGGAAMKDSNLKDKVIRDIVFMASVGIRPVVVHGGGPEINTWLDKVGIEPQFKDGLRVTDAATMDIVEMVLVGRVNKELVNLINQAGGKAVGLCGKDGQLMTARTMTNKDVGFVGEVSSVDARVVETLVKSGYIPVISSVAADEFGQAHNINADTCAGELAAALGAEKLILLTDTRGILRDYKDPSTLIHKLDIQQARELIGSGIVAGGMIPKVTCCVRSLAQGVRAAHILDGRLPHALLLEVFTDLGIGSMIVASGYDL
Put plainly: BLI; binding curves of ref. 17 re-calculated here by curve fitting from association and dissociation kinetics (Octet data analysis HT software); apparent KD.

B1: PII-LgBiT (wild-type PII protein from Synechocystis sp. PCC6803 fused to Large BiT) (natural protein, UniProt Q55247 1-112, looked up)
chain: MKKVEAIIRPFKLDEVKIALVNAGIVGMTVSEVRGFGRQKGQTERYRGSEYTVEFLQKLKIEIVVDEGQVDMVVDKLVSAARTGEIGDGKIFISPVDSVVRIRTGEKDTEAI
notes: PII signalling protein, Synechocystis sp; PCC 6803; LgBiT is fused at the C-terminally located Strep-tag purification linker of PII; cloned in pASK-IBA3; also called PII (WT); source: E. coli Lemo21, purified (Strep-Tactin Superflow); not shown: Strep-tag, internal (between PII and LgBiT), kept; LgBiT, C-terminal, kept
For B1, the Kd in assay [1] came to 16.5 nM; in [2], 14.9 nM; in [3] it was 12.9 nM; in assay [4], 4.7 nM; in [5], 17.8 nM; in assay [6] it was 8.8 nM. Further, the Kd in [7] is 1.2 nM; in assay [8] it was 0.74 nM; in assay [9], 9.5 nM; in [10], 30.8 nM.

B2: PII-I86N-LgBiT (PII variant I86N fused to Large BiT) (natural protein, Synechocystis sp. PCC6803, UniProt Q55247 1-112, looked up)
chain: MKKVEAIIRPFKLDEVKIALVNAGIVGMTVSEVRGFGRQKGQTERYRGSEYTVEFLQKLKIEIVVDEGQVDMVVDKLVSAARTGENGDGKIFISPVDSVVRIRTGEKDTEAI
notes: PII signalling protein, Synechocystis sp; PCC 6803, variant I86N; Same fusion as m1 with I86N; the text once words the change as 'IIe86 to Asp86'; source: E. coli Lemo21, purified (Strep-Tactin Superflow); not shown: Strep-tag, internal (between PII and LgBiT), kept; LgBiT, C-terminal, kept
Take B2: the Kd amounted to 12.9 nM in assay [3]; 4.1 nM in assay [4]; 1.56 nM in assay [5]; 7 nM in [6]; 0.68 nM in assay [8]; 11.7 nM in assay [10].

B3: PII-S49E-LgBiT (phosphomimetic T-loop variant of PII fused to Large BiT) (natural protein, Synechocystis sp. PCC6803, UniProt Q55247 1-112, looked up)
chain: MKKVEAIIRPFKLDEVKIALVNAGIVGMTVSEVRGFGRQKGQTERYRGEEYTVEFLQKLKIEIVVDEGQVDMVVDKLVSAARTGEIGDGKIFISPVDSVVRIRTGEKDTEAI
notes: PII signalling protein, Synechocystis sp; PCC 6803, variant S49E; Same fusion as m1 with S49E; also called S49E PII variant; source: E. coli Lemo21, purified (Strep-Tactin Superflow); not shown: Strep-tag, internal (between PII and LgBiT), kept; LgBiT, C-terminal, kept
For B3, the Kd in assay [3] amounted to 133 nM; in assay [4], 10.7 nM; in assay [5] it was 432 nM; in assay [6] it was 155 nM; in assay [8], 3.39 nM; in assay [10] it was 95.3 nM.

B4: PII (as used in the Biolayer interferometry of ref. 17) (natural protein, UniProt Q55247 1-112, looked up)
chain: MKKVEAIIRPFKLDEVKIALVNAGIVGMTVSEVRGFGRQKGQTERYRGSEYTVEFLQKLKIEIVVDEGQVDMVVDKLVSAARTGEIGDGKIFISPVDSVVRIRTGEKDTEAI
notes: PII signalling protein
Take B4: the Kd in [11] is 11.7 ± 0.005 nM.

Source of the values: article PMC8206089, “Split NanoLuc technology allows quantitation of interactions between PII protein and its receptors with unprecedented sensitivity and reveals transient interactions” (Scientific Reports, 2021).
